Laboratory results: patent EP4678181A1

Assays:
[1] = target: T1, interleukin-2 beta receptor (SYMANSIS, #4122H) to which a human immunoglobulin Fc region was linked (UniProt P14784); test: SPR (Biacore T200), receptor-Fc captured by anti-human Ig antibody on CM5 chip; relative to analog 1 (aldesleukin)
T1 sequence (looked up): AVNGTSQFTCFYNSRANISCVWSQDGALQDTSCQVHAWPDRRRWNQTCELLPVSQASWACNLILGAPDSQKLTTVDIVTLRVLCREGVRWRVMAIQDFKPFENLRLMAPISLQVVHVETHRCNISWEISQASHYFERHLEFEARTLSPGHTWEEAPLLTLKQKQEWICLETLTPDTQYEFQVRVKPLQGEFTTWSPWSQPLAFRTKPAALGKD

[2] = target: interleukin-2 alpha receptor (SYMANSIS, #4102H) to which a human immunoglobulin Fc region was linked (UniProt P01589); test: as above
[3] = target: biotin-labeled human interleukin-2 receptor alpha subunit (ACROBiosystems) (human) (UniProt P01589); test: SPR (Biacore T200), biotin-labeled receptor subunit on streptavidin chip; relative to aldesleukin
[4] = target: T2, biotin-labeled human interleukin-2 receptor beta subunit (ACROBiosystems) (human) (UniProt P14784); test: as above
T2 sequence (biotin-labeled (site not stated), looked up): T1 sequence (looked up)

Measured: Relative binding affinity (%)

Chain of interleukin-2 analog 1 (aldesleukin) (P60568 other isoform, or with tags, fused parts or gaps): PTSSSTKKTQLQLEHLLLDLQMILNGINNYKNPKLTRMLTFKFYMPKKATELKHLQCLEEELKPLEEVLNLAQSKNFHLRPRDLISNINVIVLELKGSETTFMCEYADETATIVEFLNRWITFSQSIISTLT
Chain of biotin-labeled human interleukin-2 receptor alpha subunit (ACROBiosystems) (human) (P01589 22-213): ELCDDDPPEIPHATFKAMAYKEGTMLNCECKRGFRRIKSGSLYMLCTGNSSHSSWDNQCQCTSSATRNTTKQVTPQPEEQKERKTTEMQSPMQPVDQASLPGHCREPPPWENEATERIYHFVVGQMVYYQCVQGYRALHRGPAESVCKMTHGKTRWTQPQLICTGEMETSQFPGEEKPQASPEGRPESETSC
Chain of interleukin-2 alpha receptor (SYMANSIS, #4102H) to which a human immunoglobulin Fc region was linked (P01589 22-213 limits assumed): as the sequence (P01589 22-213) above

interleukin-2 analog 1 (aldesleukin) (from UniProt P60568 22-153) (ligand)
100%: all assays above
